Results from patent publication US6998383B2, “Inhibitors of receptor activator of NF-κB and uses thereof” (Research Development Corporation, priority 2001, dated 2006).

Tests used:
RAW264.7 cells = assay: RANKL-mediated osteoclast differentiation in RAW264.7 cells (TRAP staining); format: cell-based, mouse; settings: RANKL, increasing amounts of peptide, 4-5 days (FIG. 2C)
Protocol: RAW264.7 cells were plated in 12-well plates and stimulated with RANKL (30 ng/ml) for 4 days. Cells were stained for TRAP essentially as described below. Photographs were taken using a 10× objective lens.
RAW cells were plated as described in FIG. 2A and treated with RANKL in the presence of 1, 30, or 100 μM of peptides as indicated. On day 4 cells were stained and evaluated as in FIG. 2A.
RAW264.7 cells were plated in 48-well plates in triplicate and treated with RANKL in the presence of increasing amounts of the indicated peptides. After 4-5 days, the cells were stained for TRAP and the total numbers of osteoclasts were counted as described below.
(§1) Primary bone marrow monocytes (BM) or RAW264.7 cells were cultured in 48-well dishes at a density of 1×10^5 cells/well or 2×10^3 cells/well, and then treated with the indicated factors at the beginning of the culture and during a medium change on day 3. Osteoclast formation was assessed by counting the total number of multi-nucleated (>3 nuclei), TRAP-positive cells present per well between day 7 and 10 (BM) or on day 5 (RAW264.7) (30).
The mouse macrophage cell line RAW264.7 express the receptor activator of NF-κB on their cell surface and when stimulated with the receptor activator of NF-κB ligand differentiate into multi-nucleated, tartrate resistant acid phosphatase (TRAP) positive osteoclasts after 4-5 days (FIG. 2A). To determine whether L-T6DP-1 could inhibit RANKL-mediated osteoclast differentiation, RAW264.7 cells were co-cultured with increasing concentrations of either L-T6DP-1. or T6DP-1 and 30 ng/ml RANKL for 4 days.

[1] = target: T1, TRAF5 binding to the cytoplasmic domain of RANK (Mus musculus, UniProt P70191); assay: Competitive GST-pull down assay, TRAF5 binding to RANK cytoplasmic domain; settings: 100 μM peptide, FLAG-TRAF5 293 cell extract (FIG. 4C)
T1 construct: expressed in transfected cells; host or cells: human 293 cells (TRAF lysate); The GST-RANK fusion was purified as previously described
T1 sequence (P70191 whole entry, the tested form may be a part): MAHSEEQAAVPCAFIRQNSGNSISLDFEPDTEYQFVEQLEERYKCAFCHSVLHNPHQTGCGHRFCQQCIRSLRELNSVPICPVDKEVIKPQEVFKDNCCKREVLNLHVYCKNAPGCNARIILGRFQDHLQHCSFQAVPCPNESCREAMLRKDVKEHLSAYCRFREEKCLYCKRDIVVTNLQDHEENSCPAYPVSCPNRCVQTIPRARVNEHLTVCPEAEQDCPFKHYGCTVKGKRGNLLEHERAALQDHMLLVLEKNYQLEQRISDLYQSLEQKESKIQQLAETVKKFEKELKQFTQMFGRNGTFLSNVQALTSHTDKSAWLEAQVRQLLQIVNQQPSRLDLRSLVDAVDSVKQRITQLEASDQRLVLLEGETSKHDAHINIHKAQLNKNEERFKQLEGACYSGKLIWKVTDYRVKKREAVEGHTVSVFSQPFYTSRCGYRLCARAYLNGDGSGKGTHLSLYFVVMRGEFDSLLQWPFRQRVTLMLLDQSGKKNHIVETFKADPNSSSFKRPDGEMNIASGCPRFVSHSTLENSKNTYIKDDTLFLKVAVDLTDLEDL
Protocol: (§2) Cellular extracts from human 293 cells transfected with either FLAG-TRAF2, -TRAF5, or -TRAF6 were mixed with GST or GST-RANKed in the absence or presence of 100 μM of the indicated peptides. A GST-pull down assay was performed as described below. The bound TRAFs were visualized by immunoblotting with anti-FLAG antibodies.
(§3) Equivalent amounts of GST or GST-RANK cytoplasmic domain (GST-RANKed) fusion protein attached to 20 μl of glutathione agarose beads were mixed with lysates (50 μg) from 293 cells programmed to express the epitope-tagged TRAF protein and the indicated peptides in binding buffer (20 mM TRIS, pH 8, 150 mM NaCl, 1 mM DTT, 2 mM EDTA, and 0.1% NP-40) and allowed to rotate for 1 h at 4° C. The beads were collected by centrifugation, washed three times in binding buffer, and then washed once in low-salt buffer (20 mM TRIS, pH 8, 50 mM NaCl, and 1 mM DTT). Bound proteins were eluted with addition of SDS-sample buffer and boiled. The eluted proteins were subjected to 7.5% SDS-PAGE and western blot analysis was performed with anti-FLAG antibodies.
(§4) The cytoplasmic domain of RANK interacts with many TRAF molecules, including TRAF1, 2, 3, 5, and 6 (7-9, 11, 12). While TRAF1, 2, 3, and 5 interact with the c-terminal tail of receptor activator of NF-κB, TRAF6 interacts with a membrane proximal region of the cytoplasmic domain of the receptor activator of NF-κB. […]

[2] = test system: bone marrow-derived mouse monocytes; assay: RANKL and M-CSF-mediated osteoclast differentiation in bone marrow-derived mouse monocytes (TRAP staining); format: cell-based; settings: M-CSF 10 ng/ml and RANKL 30 ng/ml (FIGS. 3A, 3B)
Protocol: After 6-7 days, the cells were fixed and stained for TRAP. The numbers of multi-nucleated, TRAP positive osteoclasts were counted.
Mouse-derived monocytes were plated in 48-well plates and costimulated as in FIG. 3A with murine M-CSF (10 ng/ml) and RANKL (30 ng/ml) in the absence (left panel) or presence of the indicated peptides. After 6-7 days, the cells were fixed and stained for TRAP. A representative field from each well was taken at a magnification of 10×.
as §1
To further support the results obtained from the RAW264.7 cell line, the ability of these peptides to inhibit RANKL-mediated osteoclast differentiation in primary mouse-derived monocytes was tested. Costimulation of bone marrow-derived monocytes with RANKL and M-CSF cause osteoclast differentiation after 7-10 days, as determined by staining multi-nucleated, TRAP positive osteoclasts (30). Similar to the results with RAW264.7 cells, both L-T6DP-1 and L-T6DP-2 inhibited the development of TRAP positive osteoclast in a dose-dependent manner and L-T6DP-1 was much more efficient (FIGS. 3A and 3B).

[3] = target: T2, TRAF2 binding to the cytoplasmic domain of RANK (Homo sapiens, UniProt Q12933); assay: Competitive GST-pull down assay, TRAF2 binding to RANK cytoplasmic domain; settings: 100 μM peptide, FLAG-TRAF2 293 cell extract (FIG. 4C)
T2 construct: expressed in transfected cells; host or cells: human 293 cells (TRAF lysate); The GST-RANK fusion was purified as previously described
T2 sequence (Q12933 1-501): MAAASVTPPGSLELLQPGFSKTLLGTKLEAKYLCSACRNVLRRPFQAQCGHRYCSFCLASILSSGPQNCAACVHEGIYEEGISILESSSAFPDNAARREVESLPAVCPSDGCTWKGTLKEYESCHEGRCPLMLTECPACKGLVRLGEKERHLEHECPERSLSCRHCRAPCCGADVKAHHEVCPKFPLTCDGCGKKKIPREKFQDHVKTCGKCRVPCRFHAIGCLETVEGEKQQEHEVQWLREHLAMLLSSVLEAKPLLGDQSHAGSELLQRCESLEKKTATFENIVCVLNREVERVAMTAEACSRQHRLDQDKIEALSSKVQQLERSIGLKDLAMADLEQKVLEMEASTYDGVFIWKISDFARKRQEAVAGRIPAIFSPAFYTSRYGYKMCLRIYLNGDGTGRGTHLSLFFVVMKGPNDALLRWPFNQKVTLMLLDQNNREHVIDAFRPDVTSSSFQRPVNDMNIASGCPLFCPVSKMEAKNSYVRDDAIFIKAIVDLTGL
Protocol: as §2, §3, §4

[4] = target: T3, TRAF6 binding to the RANK cytoplasmic domain (Mus musculus, UniProt P70196); assay: Competitive GST-pull down assay, TRAF6 binding to RANK cytoplasmic domain; settings: 100 μM peptide, FLAG-TRAF6 293 cell extract, GST-RANK cytoplasmic domain (FIG. 4C)
T3 construct: expressed in transfected cells; host or cells: human 293 cells (TRAF lysate); The GST-RANK fusion was purified as previously described
T3 sequence (P70196 1-530): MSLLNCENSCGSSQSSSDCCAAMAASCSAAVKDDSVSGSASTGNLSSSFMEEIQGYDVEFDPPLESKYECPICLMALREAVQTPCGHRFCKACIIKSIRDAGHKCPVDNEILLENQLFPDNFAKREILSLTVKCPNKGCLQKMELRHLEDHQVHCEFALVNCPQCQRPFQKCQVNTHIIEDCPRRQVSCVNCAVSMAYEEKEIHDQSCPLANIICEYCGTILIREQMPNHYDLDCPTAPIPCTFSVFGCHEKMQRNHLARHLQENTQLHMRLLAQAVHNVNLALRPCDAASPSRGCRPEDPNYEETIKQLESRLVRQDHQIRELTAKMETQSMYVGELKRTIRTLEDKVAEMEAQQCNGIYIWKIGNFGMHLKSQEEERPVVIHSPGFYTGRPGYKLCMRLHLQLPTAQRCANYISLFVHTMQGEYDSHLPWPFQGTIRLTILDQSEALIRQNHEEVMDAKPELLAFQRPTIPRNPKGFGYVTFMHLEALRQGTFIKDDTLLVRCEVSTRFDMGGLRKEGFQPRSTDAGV
Protocol: as §2, §3, §4

L-T6DP-2: Kaposi fibroblast growth factor signal sequence hydrophobic domain attached to murine RANK peptide containing a similar TRAF6-binding motif (AAVALLPAVLLALLAPFQEPLEVGE)
number of TRAP positive osteoclasts (RAW264.7 cells): dose-dependent decrease
TRAF5 binding to the cytoplasmic domain of RANK [1]: neither L-T6DP-1 nor L-T6DP-2 inhibited
development of TRAP positive osteoclasts [2]: inhibited
TRAF2 binding to the cytoplasmic domain of RANK [3]: neither L-T6DP-1 nor L-T6DP-2 inhibited
TRAF6 interaction with the cytoplasmic domain of RANK [4]: Only L-T6DP-1 inhibited
